From patent US20260069689A1 (Regeneron, published 2026)

B1: mAb14312 (antibody, V domains shown)
VH: EVQLVESGGGLVQPGGSLRLSCAASGFTVSRSYMTWVRQAPGKGLEWVSVIFTGGRTDHADSVKGRFTISRHNSKNTLYLQMNSLRTEDTAVYYCARVAIVGATGAFDIWGQGTMVTVSS
VL: QSVLTQPPSVSGAPGQRVTISCTGSSSNIGAGDDVHWYQQLPGTAPKLLIYGNSNRPSGVPDRFSGSKSGTSASLAITGLQAEDEADYYCQSYDSSLSGSVVFGGGTKLTVLG
B2: mAb14284 (antibody, V domains shown)
VH: QITLKESGPTLVKPTQTLTLTCTFSGFSFSTSGVGVGWIRQPPGKTLEWLALIYWDDDKRYSPSLKSRLTITKDTSKNQVVLTMTNMDPVDTATYFCAHHGIPTIFGYWGQGALVTVSS
VL: QSALTQPASVSGSPGQSITISCTGTSSDLGVFNYVSWYQQHPGKAPKLMIYEVTNRPSGVSNRFSGSKSGNTASLTISGLQAEDEADYYCSSYTTSSTVFGGGTKLTVLG
B3: mAb14258 (antibody, V domains shown)
VH: QLQLQESGPGLVKPSETLSLICTGSGDSISSSHYYWGWIRQPPGKGLEWIGSTYFSGSTYYNPSLKSRVSISVDTSKNQVSLKLISVTAADTAVYYCAREMGATLGDYWGPGTLVTVSS
VL: QSVLTQPPSASGTPGQRVTISCSGSSSNIGNNYVYWYQQFPGTTPRLLIYRNNERPSGVPDRFSGSKSGTSASLVISGLRSEDEADYYCAAWDDSLSAHYVFGTGTKVTVLG
B4: mAb14294 (antibody, V domains shown)
VH: EVQLVESGGGLVQPGGSLRLSCAASGFTFSNHWMDWVRQAPGKGLVWVSRINSDGSSTDYADSVRGRFTMSRDNAKNTLYLQMSSLRAEDTAVYYCAREGMIFGAVIIPGWYFDLWGRGALVTVSS
VL: EIVLTQSPGTLSLSPGERATLSCRASQSVSSSQLAWYQQKPGQAPRLLIYGASSRATGIPDRFSGSGSGTDFTLTISRLEPEDFAVYYCQQYDSFGQGTKLEIKR
B5: mAb14283 (antibody, V domains shown)
VH: QVQLQESGPGLVKPSGTLSLTCDVSGGSISSNNWWSWVRQRPGKGLQWIGEIYHNENTNYNPSLKSRVIMSIDKSKNQFSLKLTSVTAADTAVYYCARGDVLDWFDPWGQGTLVTVSS
VL: QSALTQPASVSGSPGQSTTISCTGTSSDVGGYNYVSWYQQYPGKAPKLMIYDVTNRPSGVSHRFSGSKSGNTASLTISGLQAEDEADYYCSSYTSSSTVIFGGGTKLTVLG
B6: mAb14235 (antibody, V domains shown)
VH: QITLKESGPTLVKPTQTLTLTCTFSGFSLNTGGVGVGWIRQPPGNALEWLALIYWDDDKRYNPSLKTRLTISKDTSKNQVVLTMTNMDPVDTATYFCAHLTIAVIVDFWGQGTLVTVSS
VL: QSALTQPASVSGSPGQSITISCTATSSDVGTYNYVSWFQHHPGKAPKLMIYEVTNRPSGVSNRFSGSKSGNTASLTISGLQAEDEADYYCSSYTTTSIVFGGGTKLTVLG
B7: mAb14289 (antibody, V domains shown)
VH: QVQLVQSGPEVKKPGASVKVSCKASGYTFTSYAISWVRQAPGQGLEWMGWISAYNGNTNYAQKLQGRVTMTTDTFTSTAYMELRSLRSDDTAVYYCAVPADHITFDYWGQGTLVTVSS
VL: EIVLTQSPGTLSLSPGERATLSCRASQSVSSYLAWYQQKPGQAPRLLIHGASSRATGIPDRFSGSGSGTDFTLTISRLEPEDFAVYYCQQYGSSFLTFGGGTKVEIKR
B8: mAb13458 (antibody, V domains shown)
VH: EVQLVESGGGLVQPGRSLRLSCAASGFTFDDYAMHWVRQAPGKGLEWVSGISWNSGSIGYADSVKGRFTISRDNAKNSLYLQMNSLRAEDTALYYCAKDIGITTPYWGQGTLVTVSS
VL: AIQMTQSPSSLSASVGDRVTITCRASQDIRNDLGWYQQKPGKAPKLLIYSASSLQTGVPSRFSGSGSGTDFTLTISSLHPEDFATYYCLQDYWYTWTFGQGTKVEIKR
B9: mAb13459 (antibody, V domains shown)
VH: EVQLVESGGGLVQPGRSLRLSCAASGFTFDDYAMHWVRQAPGKGLEWVSGISWNSGSIGYADSVKGRFTISRDNAKNSLYLQMNSLRAEDTALYYCAKDIGITTPYWGQGTLVTVSS
VL: AIQMTQSPSSLSASVGDRVTITCRASQDIRNDLGWYQQKPGKAPKLLIYSASSLQTGVPSRFSGSGSGTDFTLTISSLHPEDFATYYCLQDYNYVWTFGQGTKVEIKR
B10: mAb14313 (antibody, V domains shown)
VH: EVQLVESGGGLVQPGRSLRLSCVASGFTFDDSAMHWVRQPPGKGLEWVSGISWNSGIIGYAESVKGRFIISRDNAKNSLFLHMRGLRPEDTAVYYCARDRLELSYYYYGMDVWGQGTTVTVSS
VL: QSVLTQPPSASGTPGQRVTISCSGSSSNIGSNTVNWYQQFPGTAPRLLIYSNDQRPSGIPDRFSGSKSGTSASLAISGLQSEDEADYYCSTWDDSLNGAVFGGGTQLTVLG
B11: mAb14247 (antibody, V domains shown)
VH: QITLKESGPTLVKPTQTLTLTCTFSGFSLSTSAVGVGWIRQPPGKALEWLALIYWDDDKRYSPSLKSRLTITKDTSKNQLVLTMTNVDPVDTATYYCAHHTIQLIFDYWGQGTLVTVSS
VL: QSALTQPASVSGSPGQSITISCTATSSDVGNYNYVSWYQQHPGKAPKLMIYEVSNRPSGVSNRFSGSKSGNTASLTISGLQAEDEADYYCSSYTSSSTPLVFGGGTKLTVLG
B12: mAb14315 (antibody, V domains shown)
VH: QVQLVQSGAEVKKPGSSVKVSCKASGDTFSTYAINWVRQAPGQGLEWMGRFIHIFGTANYAQKFQGRVTITADESTSTAYMELRSLRSEDTAVYYCARDGVDYGDYRPDYWGQGTLVTVSS
VL: EIVLTQSPGTLSLSPGERATLSCRASQSVSSNYLAWYQQKPGQAPRLLIYGASSRATGIPERFSGSGSGTDFTLTISRLEPEDFAVYYCQQYGSSLYTFGQGTKLEIKR
B13: mAb14257 (antibody, V domains shown)
VH: EVQLVESGGGLVQPGGSLRLSCAASGFTVSRSYMNWVRQAPGKGLEWVSVVFTGGTTKHTDSVKGRFTISRDNSMNTLYLQMNSLRPEDTAVYYCARVAIVETTGAFDIWGQGTMVTVSS
VL: QSVLTQPPSVSGAPGQRVTISCTGTSSNIGADFDVHWYQQFPGTAPKLLIYGHTNRPSGIPDRFSGSKSGTSASLAITGLQAEDEADYYCQSYDSSLSGSVVFGGGTKLTVLG
B14: mAb14255 (antibody, V domains shown)
VH: QVQLQESGPGLVKPSETLSLTCTVSGGSISGYYWSWIRQPPGKGLDWIGYIYYRGNTNYNPSLKSRVTISVDTSNNQFSLKLSSVTAADTAVYYCARYGEGYGDASGYHFDYWGQGTLVTVSS
VL: QSALTQPASVSGSPGQSITISCTGTSSDVGSYNLVSWYQQHPGKAPKLMIYEDSKRPSGVANPFSGSKSGNTASLTISGLQAEDEADYYCSSYAGSSTWVFGGGTKLTVLG
B15: mAb14286 (antibody, V domains shown)
VH: QVQLVQSGAEVKKPGASVKVSCKASGYTFTDYFIHWVRQAPGQGLEWMGWINPTSGGTNYAQKFRGRVTMTRDTSISTAYVELSRLRSDDTALYYCARDLPFYSDTKQFDYWGQGTLVTVSS
VL: QSALTQPASVSGYPGQSITISCTGTSSDVGGYNYVSWYQQHPGKAPKLMIFDVSNRPSGVSNRFSGSKSGNTASLTFSGLQAEDEADYYCSSYTSSSTLVFGGGTKLTVLG
B16: mAb14282 (antibody, V domains shown)
VH: QVQLVQSGAEVKKPGASVKVSCKASGYIFTDHYMHWVRQAPGQGLEWMGWINPNSGATNYAQNFQGRVTMTRDTSIITVYMELSRLRSDDTAVYYCARDSSPYMIRYTMDVWGQGTTITVSS
VL: QSALTQPASVSGSPGQSITISCTGTSSDVGSYNLVSWYQQHPGKAPKLMIYELTKRPSGVSNRFSGSKSGNTASLTISGLQAEDEADYYCSSYRGSVTDVVFGGGTKLTVLG
B17: mAb14281 (antibody, V domains shown)
VH: QVQLVQSGADVKKPGASVKVSCKTSGYIFTGYYIHWVRQAPGQGLEWMGWINPNSGGTNSAQKFQGRVTMTRDTSISTVYMELSRLRSDDTAVYYCAKSNSFSVLDYNFDYWGQGTLVTVSS
VL: SSELTQDPAVSVALGQTVRITCQGDSLRSYYASWYQQKPGQAPVLVIYDKNNRPSGIPDRFSGSSSGNTASLTITGAQAEDEADYYCNSRDSSRNHLVVFGGGTKLTVLG
B18: mAb14230 (antibody, V domains shown)
VH: EVQLVESGGGLIQPGRSLRLSCAASGFTFDDYAMHWVRQAPGKGLEWVSGISWNSVSIDYADSVKGRFTISRDNAKNSLYLQMTSLTVEDTALYYCAKAFGYETLTGSDYFAYWGPGTLVTVSS
VL: EIVLTQSPGTLSLSPGERATLSCRASQTVISTYLAWYQQKPGQSPRLLIYGASSRATGIPDRFSGSGSGTDFTLTISRLEPEDFAVYYCQQYGSSPQLTFGGGTKVEIKR
B19: mAb14256 (antibody, V domains shown)
VH: QVQLQESGPGLVKPSETLSLTCTVSGGSISSHYWSWIRQPPGKGLEWIGYIYYSGSSNYNPSLKSRVTISVDTSKNQFSLKLNSVTAADTAVYYCARHYDILTGFDWFDPWGQGTLVTVSS
VL: QSVLTQPPSVSGAPGQRVTISCTGSSSNIGTHYDVHWYQQLPGTAPKLLIYGNSNRPSGVPDRFSGSKSGTSASLAITGLQAEDEADYYCQSFDNSLTAPYVFGTGTKVTVLG

These binders were tested against SARS-COV-2 RBD extracellular domain expressed with a C-terminal myc-myc-hexahistidine tag (SARS-COV-2 RBD-mmH) (SARS-CoV-2) (assay: SPR Biacore, mAb captured on anti-hFc, RBD-mmH analyte, 37 C).

B1 and B2 are within 1.5-fold of each other in Kd: 0.631 nM for the first, 0.94 nM for the second.

B3 and B4 are within 1.5-fold of each other in Kd: 0.796 nM for the first, 0.984 nM for the second.

B5 and B6 are within 1.5-fold of each other in Kd: 1.17 nM for the first, 1.37 nM for the second.

B7 and B8 are within 1.5-fold of each other in Kd: 1.46 nM for the first, 1.54 nM for the second.

Compared with B9, B10 is 2.8-fold lower in Kd: 2.6 nM for the first, 0.921 nM for the second. The second binds more tightly here.

B11 and B12 are within 1.5-fold of each other in Kd: 1.95 nM for the first, 2.26 nM for the second.

B13 and B14 are within 1.5-fold of each other in Kd: 2.34 nM for the first, 2.76 nM for the second.

Going from B15 to B16, the Kd rises from 3.07 nM to 5.37 nM (1.7-fold).

B17 and B18 are within 1.5-fold of each other in Kd: 5.2 nM for the first, 7.61 nM for the second.

Binder B19 has a Kd of 8.24 nM.

First: B1
Second: B2
The koff of the first is 1.6-fold higher: 0.000988 s⁻¹ for the first, 0.000605 s⁻¹ for the second.

First: B3
Second: B4
The koff of the first is 2.9-fold higher: 0.0017 s⁻¹ for the first, 0.00059 s⁻¹ for the second.

Going from B5 to B6, the koff falls from 0.00179 s⁻¹ to 0.00109 s⁻¹ (1.6-fold).

B7 and B8 are within 1.5-fold of each other in koff: 0.00176 s⁻¹ for the first, 0.00139 s⁻¹ for the second.

B9 and B10 are within 1.5-fold of each other in koff: 0.00204 s⁻¹ for the first, 0.00259 s⁻¹ for the second.

Going from B11 to B12, the koff falls from 0.00163 s⁻¹ to 0.000985 s⁻¹ (1.7-fold).

B13 and B14 are within 1.5-fold of each other in koff: 0.00762 s⁻¹ for the first, 0.00535 s⁻¹ for the second.

B15 and B16 are within 1.5-fold of each other in koff: 0.0104 s⁻¹ for the first, 0.0106 s⁻¹ for the second.

First: B17
Second: B18
The koff of the first is 1.5-fold lower: 0.00582 s⁻¹ for the first, 0.00876 s⁻¹ for the second.

In the case of B19, the koff is reported as 0.0115 s⁻¹.

Compared with B1, B2 is 2.4-fold lower in kon: 1.57e+06 M⁻¹ s⁻¹ for the first, 644000 M⁻¹ s⁻¹ for the second.

First: B3
Second: B4
The kon of the first is 3.6-fold higher: 2.14e+06 M⁻¹ s⁻¹ for the first, 600000 M⁻¹ s⁻¹ for the second.

First: B5
Second: B6
The kon of the first is 1.9-fold higher: 1.54e+06 M⁻¹ s⁻¹ for the first, 793000 M⁻¹ s⁻¹ for the second.

B7 and B8 are within 1.5-fold of each other in kon: 1.2e+06 M⁻¹ s⁻¹ for the first, 907000 M⁻¹ s⁻¹ for the second.

Going from B9 to B10, the kon rises from 786000 M⁻¹ s⁻¹ to 2.81e+06 M⁻¹ s⁻¹ (3.6-fold).

Going from B11 to B12, the kon falls from 832000 M⁻¹ s⁻¹ to 435000 M⁻¹ s⁻¹ (1.9-fold).

Going from B13 to B14, the kon falls from 3.26e+06 M⁻¹ s⁻¹ to 1.94e+06 M⁻¹ s⁻¹ (1.7-fold).

First: B15
Second: B16
The kon of the first is 1.7-fold higher: 3.38e+06 M⁻¹ s⁻¹ for the first, 1.98e+06 M⁻¹ s⁻¹ for the second.

B17 and B18 are within 1.5-fold of each other in kon: 1.12e+06 M⁻¹ s⁻¹ for the first, 1.15e+06 M⁻¹ s⁻¹ for the second.

Work on B19 yielded a kon of 1.4e+06 M⁻¹ s⁻¹.

First: B1
Second: B2
The t½ of the first is 1.6-fold lower: 11.7 min for the first, 19.1 min for the second.

First: B3
Second: B4
The t½ of the first is 2.9-fold lower: 6.8 min for the first, 19.6 min for the second.

Going from B5 to B6, the t½ rises from 6.4 min to 10.6 min (1.7-fold).

B7 and B8 are within 1.5-fold of each other in t½: 6.5 min for the first, 8.3 min for the second.

B9 and B10 are within 1.5-fold of each other in t½: 5.7 min for the first, 4.5 min for the second.

Compared with B11, B12 is 1.6-fold higher in t½: 7.1 min for the first, 11.7 min for the second.

B13 and B14 are within 1.5-fold of each other in t½: 1.5 min for the first, 2.2 min for the second.

B15 and B16 are the same in t½: 1.1 min for the first, 1.1 min for the second.

Going from B17 to B18, the t½ falls from 2 min to 1.3 min (1.5-fold).

For B19, the t½ was 1 min.
